In experiment [1] the target is T1, insulin (Sigma).
T1 construct: Antigen of the polyreactivity ELISA
Description: polyreactive ELISA, insulin coated, 100 nM antibody. The method, then:
Insulin ([…]; Sigma) and dsDNA ([…]; Sigma) were coated onto 96-well high-binding ELISA microplates (Corning) at 50 μL per well overnight at 4° C. Plates were blocked with PBS with 0.5% BSA (blocking buffer) at room temperature (RT) for 1 h, followed by three washes with PBST (PBS with 0.1% Tween-20). 50 μL of 100 nM antibody in blocking buffer was added to each well and incubated at RT for 1 h, followed by six washes with 100 μL of PBS. 50 μL of diluted anti-human IgG-horseradish peroxidase (HRP) conjugate (Jackson ImmunoResearch) was added to the wells and incubated for 1 h followed by another six washes. Finally, 50 μL of 3, 3′, 5, 5′-Tetramethylbenzidine (TMB) substrate (Fisher Scientific) was added to each well to develop the detection signal. The reactions were stopped by adding 50 μL of 2 M sulfuric acid to each well. The absorbance was measured at 450 nm using a multimode microplate reader. Ustekinumab as the control antibody with low polyreactivity and bococizumab as a highly polyreactive antibody control were also included in the polyreactive ELISA assessment.
The first assessment tested for low non-specific binding to dsDNA and insulin by ELISA. […] Thus, by this standard, none of the tested antibodies were polyreactive.
A general note: ELISA stands for enzyme-linked immunosorbent assay.

In experiment [2] the target is T2, human CD8αα homodimer, recombinant protein (Acro Biosystems) (human, UniProt P01732 22-182).
T2 construct: also called CD8αα antigen; biotinylated CD8α recombinant protein (CDA-H82E3)
Description: BLI binding kinetic analysis, whole antibody, sample stressed at pH 8.5, 40 °C, 3 days. A general note: In BLI a coated tip is dipped into the sample, and binding shifts an interference pattern.

Experiment [3] has as its target T3, cynomolgus macaque CD8αα homodimer, recombinant protein (cynomolgus macaque).
T3 construct: also called cynomolgus CD8αα homodimer
Briefly: SPR (Biacore 8K), antibody captured by anti-human Fc, CD8 as analyte, 1:1 fit, 25 °C. The procedure: Except for cynomolgus CD8αβ heterodimer, binding was analyzed with a two-fold dilution series of recombinant CD8αα homodimer or CD8αβ heterodimer protein from 200 nM to 6.25 nM. For cynomolgus CD8αβ heterodimer, binding was analyzed with a two-dilution series from 400 nM to 12.5 nM.. The global fitting was performed with a 1:1 fitting model using GatorOne software as described below.
Surface plasmon resonance (SPR) assays were performed using a Biacore 8K SPR instrument (Cytiva) in a running buffer containing 1×HBS-N(Cytiva) and 0.05% Tween-20 at 25° C. The CBD1033 antibody was captured by anti-human IgG (Fc) antibody (Cytiva) immobilized on a CM5 sensor chip (Cytiva) at a density within 40-50 and 80-100 response units (RU) for kinetic measurements with CD8αα and CD8αp, respectively. To measure the binding kinetics, serial two-fold dilutions of recombinant CD8 protein were prepared in the running buffer were injected into the flow cells at […], with the concentration ranging from 200 to 6.25 nM (successive 1:2 dilutions). The association data was collected for 180 s followed by a 1200 s dissociation step. At the end of each binding cycle, the sensor surface was regenerated with a 3M MgCl₂ buffer. For cynomolgus macaque CD8αβ heterodimer, the binding kinetics were assessed with the same experimental parameters, except the concentration ranges from 400 to 12.5 nM. Sensorgrams were generated, and background-subtracted with the blank running buffer. The binding kinetic parameters were analyzed and determined with a standard 1:1 monovalent binding (Langmuir) model using BIAcore Evaluation software (Cytiva).
On the technique in general: Surface plasmon resonance follows binding to a sensor surface in real time, without labels.

Experiment [4] concerns the target T2, human CD8αα homodimer, recombinant …. Description: BLI, whole antibody.
The target of experiment [5] is T4, human CD8 on cells (CD8-overexpressing HEK293T cells, SupT1, HPB-ALL, human T cells, transfected HEK293 of … (human, UniProt P01732 22-235)).
T4 construct: whole, on cells; also called cell surface CD8
Briefly: flow cytometry on SupT1 cells; SupT1 cells. The method, then:
To obtain the results shown in FIG. 6, SupT1 (ATCC #CRL-1942) and HPB-ALL (DSMZ; ACC-483) were cultured in RPMI medium supplemented with 10% Fetal Bovine Serum (#97068-085; Avantor). To determine EC₅₀ values of cell binding from the anti-CD8α antibody, 2×10⁵ total cells were transferred to a V bottom 96-well culture plate (Corning). Cells were washed twice with Cell Staining buffer (#420201, Biolegend). The anti-CD8α antibody was diluted in four-fold antibody titration series from 60 μg/mL to […] into Cell Staining buffer. Cells were stained with each diluted antibody solution for 30 minutes on ice. Cells were then washed three times with Cell Staining buffer and primary antibody binding was detected by staining with anti-human Fc BV421 conjugate antibody (#410704, Biolegend) at 1:200 dilution for 30 minutes on ice. eFluor 780 Fixable Viability dye (eBioscience) at a 1:4000 dilution were also included in the detection antibody solutions. […] Flow cytometry data was analyzed by Flowjo 10 (Becton, Dickinson & Company) to measure the geometric median fluorescence intensity (gMFI) of the on-cell binding from each antibody. The gMFI values were normalized with the gMFI measured in the sample stained with only the secondary detection antibody and plotted against the concentration of the added antibodies. […]

The target in experiment [6] is T2, human CD8αα homodimer, recombinant …. Description: BLI steady state, whole hIgG1-LALAPA antibody on CD8α-His (Ni-NTA sensor), 30 °C. The method, then: To assess affinity of whole antibodies, steady state analysis was used as the bivalent nature of both whole antibody and CD8α complicates kinetic analysis. 50 nM CD8α-His (that is, CD8α with a C-terminal oligohistidine tag; Acro) was immobilized on Ni-NTA sensor probes. Binding was analyzed with a three-fold antibody dilutions series: 60 nM, 20 nM, 6.67 nM, 2.22 nM, 0.74 nM, and 0.25 nM. The antigen-loaded sensors were incubated in the diluted solutions to capture the whole IgG antibody for 300 s to record the association phase. Sensors were incubated in the kinetic buffer for 900 s to record the dissociation phase. The spin speed was 1000 rpm for all steps except the antigen loading step which was 400 rpm to control density of the antigen. The temperature of the performed assays was at 30° C. during the association and dissociation phases. The sensor data were baseline subtracted and further analyzed in GatorOne software (version 2.10) to determine the equilibrium dissociation constants (KD) of the antibodies by fitting the signals of the steady states to the 1:1 binding model.

The results in this text go back to patent US20250195685A1 (CAPSTAN THERAPEUTICS, published 2025).

T2 sequence (P01732 22-182 limits assumed): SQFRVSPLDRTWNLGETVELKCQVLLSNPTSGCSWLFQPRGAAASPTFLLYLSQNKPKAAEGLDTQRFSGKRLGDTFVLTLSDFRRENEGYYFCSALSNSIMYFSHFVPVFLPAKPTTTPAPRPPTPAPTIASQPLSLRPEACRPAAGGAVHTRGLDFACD
T1 sequence (P01308 25-54, chain 1 of 2): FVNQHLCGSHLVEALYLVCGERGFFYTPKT
T1 sequence (P01308 90-110, chain 2 of 2): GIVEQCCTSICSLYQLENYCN
T4 sequence (P01732 22-235): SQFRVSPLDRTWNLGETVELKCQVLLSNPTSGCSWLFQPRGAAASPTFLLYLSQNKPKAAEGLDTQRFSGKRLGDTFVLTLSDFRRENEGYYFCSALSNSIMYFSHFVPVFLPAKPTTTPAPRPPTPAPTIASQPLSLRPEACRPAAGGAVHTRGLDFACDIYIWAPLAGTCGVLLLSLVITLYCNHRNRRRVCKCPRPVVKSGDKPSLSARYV

B1: CBD1033 whole antibody, human IgG1 with Fc-silencing mutations L234A, L235A and P329A (CBD1033-hIgG1-LALAPA) (antibody, V domains shown)
VH: QVQLVQSGAEVKKPGASVKVSCKASRYTFTDYNLHWVRQAPGQGLEWMGFIYPYNGGTGYAQKFQGRVTMTVDTSTSTAYMELSSLRSEDTAVYYCARDHRYNEGVSFDYWGQGTTVTVSS
VL: DIQLTQSPSSLSASVGDRATITCRASESVDGFGNSFMNWYQQKPGKAPKLLIYLASNLESGVPSRFSGSGSGTDFTLTISSVQPEDFATYYCQQNNEDPYTFGQGTKLEIKR
notes: On tLNPs the antibody was SATA-modified or AJICAP-thiolated (CBD1033.29) and conjugated to the LNP; also called CBD1033.3; CBD1033 IgG1
For the molecule B1, the “polyreactivity ELISA score” value in experiment [1] amounted to 1. In addition, the Kd in experiment [2] turned out to be 2 nM; in experiment [3] it was 5.43 nM. Besides, the figures for the koff in experiment [2], in experiment [3] and in experiment [4] were 0.00314 s⁻¹, 0.000271 s⁻¹ and 0.00307 s⁻¹, respectively. Further, the kon in experiment [2] amounted to 1.57e+06 M⁻¹ s⁻¹; in experiment [3] it was 50000 M⁻¹ s⁻¹; in experiment [4], 1.85e+06 M⁻¹ s⁻¹. In experiment [5], this molecule registered an EC50 of 0.312 µg/mL.

B2: CBD1017ch whole antibody (chimeric CT8 antibody) (antibody, V domains shown)
VH: EVQLQQSGPELVKPGASVKISCKASRYTFTDYNLHWVKLSHEKSLEWIGFIYPYNGGTGYNQKFKNKAKLTVDYSSSTAYMELRSLTSVDAAVYYCARDHRYNEGVSFDYWGQGTTLTVSS
VL: NIVLTQSPASLAVSLGQRATISCRASESVDGFGNSFMNWYQQKPGQSPKLLIYLASNLESGVPARFSGSGSRTDFTLTIDPVEADDAATYYCQQNNEDPYTFGGGTKLEIK
notes: Chimeric antibody comprising the variable regions of the donor antibody CT8; detected with anti-human Fc
Regarding B2, the Kd in experiment [6] turned out to be 0.58 nM.

The Kd is the free concentration of one partner at which half of the binding sites on the other are occupied at equilibrium, for simple one-to-one binding. The term koff denotes the rate constant with which the complex falls apart. Broadly, the kon is the second-order rate constant of association. In general, EC50 refers to the concentration needed to bring the measured effect to its halfway point. A high value points to a need for much substance.
